Values quoted from earlier work in paper PMC7153410.
Read-outs that look alike come from different tables or passages of the source.

Assays:
RAGE (Homo sapiens) [1] = target: RAGE (Homo sapiens) (UniProt Q15109)
TLR4-MD-2 (Homo sapiens) [2] = target: TLR4-MD-2 (Homo sapiens) (UniProt O00206)
MD-2 [3] = target: MD-2 (UniProt Q9JHF9)
RAGE (Homo sapiens) [4] = target: RAGE (Homo sapiens) (UniProt Q15109); remark: listed apart in the source
TLR4-MD-2 (Homo sapiens) [5] = target: TLR4-MD-2 (Homo sapiens) (UniProt O00206); remark: listed apart in the source
RAGE (Homo sapiens) [6] = target: RAGE (Homo sapiens) (UniProt Q15109); remark: listed apart in the source
MD-2 [7] = target: MD-2 (UniProt Q9JHF9); remark: listed apart in the source

Chain of UniProt Q15109 (Q15109 23-404): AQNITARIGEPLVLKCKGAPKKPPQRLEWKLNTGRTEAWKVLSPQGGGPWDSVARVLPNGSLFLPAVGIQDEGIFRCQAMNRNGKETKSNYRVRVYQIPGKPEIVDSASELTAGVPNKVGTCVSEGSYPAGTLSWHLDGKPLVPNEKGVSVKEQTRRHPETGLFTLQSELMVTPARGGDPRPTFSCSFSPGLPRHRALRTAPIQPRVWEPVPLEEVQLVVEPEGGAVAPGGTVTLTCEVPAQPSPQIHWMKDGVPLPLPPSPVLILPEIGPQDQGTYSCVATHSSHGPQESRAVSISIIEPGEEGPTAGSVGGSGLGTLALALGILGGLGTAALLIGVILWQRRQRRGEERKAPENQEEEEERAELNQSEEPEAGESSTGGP
Chain of UniProt O00206 (O00206 24-839, chain 1 of 2): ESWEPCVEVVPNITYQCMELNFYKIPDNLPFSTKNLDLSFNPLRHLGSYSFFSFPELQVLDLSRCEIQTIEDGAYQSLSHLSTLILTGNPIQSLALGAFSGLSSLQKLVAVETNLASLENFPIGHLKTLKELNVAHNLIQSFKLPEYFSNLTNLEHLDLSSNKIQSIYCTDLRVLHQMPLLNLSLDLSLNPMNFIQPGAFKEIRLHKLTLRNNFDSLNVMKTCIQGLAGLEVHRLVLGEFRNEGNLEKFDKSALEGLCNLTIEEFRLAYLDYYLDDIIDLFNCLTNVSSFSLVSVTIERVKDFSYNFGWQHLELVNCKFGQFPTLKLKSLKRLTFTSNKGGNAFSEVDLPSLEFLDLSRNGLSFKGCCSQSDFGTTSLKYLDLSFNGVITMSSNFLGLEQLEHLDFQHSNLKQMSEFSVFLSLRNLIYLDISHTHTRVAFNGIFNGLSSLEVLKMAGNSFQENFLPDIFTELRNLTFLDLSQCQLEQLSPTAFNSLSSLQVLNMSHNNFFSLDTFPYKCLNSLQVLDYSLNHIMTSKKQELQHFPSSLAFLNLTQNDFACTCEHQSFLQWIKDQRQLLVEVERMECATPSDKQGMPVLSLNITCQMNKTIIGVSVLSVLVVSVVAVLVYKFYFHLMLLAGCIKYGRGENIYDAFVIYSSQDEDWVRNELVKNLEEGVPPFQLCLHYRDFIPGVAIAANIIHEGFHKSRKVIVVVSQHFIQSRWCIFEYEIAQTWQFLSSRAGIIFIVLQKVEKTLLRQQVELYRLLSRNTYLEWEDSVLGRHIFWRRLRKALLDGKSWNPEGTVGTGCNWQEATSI
Chain of UniProt O00206 (Q9Y6Y9 19-160, chain 2 of 2, further chain): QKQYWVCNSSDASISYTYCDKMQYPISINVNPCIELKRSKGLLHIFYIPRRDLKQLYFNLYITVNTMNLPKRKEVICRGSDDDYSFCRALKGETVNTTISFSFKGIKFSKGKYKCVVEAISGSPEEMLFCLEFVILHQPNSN
Chain of UniProt Q9JHF9 (Q9JHF9 19-160): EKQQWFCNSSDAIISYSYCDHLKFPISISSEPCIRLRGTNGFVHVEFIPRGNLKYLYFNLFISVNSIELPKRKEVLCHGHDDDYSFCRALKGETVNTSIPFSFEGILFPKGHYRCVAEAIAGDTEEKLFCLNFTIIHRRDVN

For S100A8-S100A9 (from UniProt P05109), the Kd (RAGE (Homo sapiens) [1]) is listed as 9.4 nM and the Kd (TLR4-MD-2 (Homo sapiens) [2]) is listed as 3.8 nM.

In the case of S100A8 2-89 (from UniProt P27005), the Kd (MD-2 [3]) is listed as 730 nM.

For S100A9 (from UniProt P06702), the Kd (RAGE (Homo sapiens) [4]) is given as 38 nM and the Kd (TLR4-MD-2 (Homo sapiens) [5]) is given as 2.1 nM.

For S100A12 (from UniProt P80511), the Kd (RAGE (Homo sapiens) [6]) is given as 90 nM.

For SAA3 43-57 (from UniProt P04918), the Kd (MD-2 [7]) is listed as 30 µM.
